# Measurements as given in IntAct's records for PubMed 20462492.
# B1: Pre-mRNA-processing factor 19 (Saccharomyces cerevisiae), P32523 (parent)
# chain: MLCAISGKVPRRPVLSPKSRTIFEKSLLEQYVKDTGNDPITNEPLSIEEIVEIVPSAQQASLTESTNSATLKANYSIPNLLTSLQNEWDAIMLENFKLRSTLDSLTKKLSTVMYERDAAKLVAAQLLMEKNEDSKDLPKSSQQAVAITREEFLQGLLQSSRDFVARGKLKAPKWPILKNLELLQAQNYSRNIKTFPYKELNKSMYYDKWVCMCRCEDGALHFTQLKDSKTITTITTPNPRTGGEHPAIISRGPCNRLLLLYPGNQITILDSKTNKVLREIEVDSANEIIYMYGHNEVNTEYFIWADNRGTIGFQSYEDDSQYIVHSAKSDVEYSSGVLHKDSLLLALYSPDGILDVYNLSSPDQASSRFPVDEEAKIKEVKFADNGYWMVVECDQTVVCFDLRKDVGTLAYPTYTIPEFKTGTVTYDIDDSGKNMIAYSNESNSLTIYKFDKKTKNWTKDEESALCLQSDTADFTDMDVVCGDGGIAAILKTNDSFNIVALTP
# partner: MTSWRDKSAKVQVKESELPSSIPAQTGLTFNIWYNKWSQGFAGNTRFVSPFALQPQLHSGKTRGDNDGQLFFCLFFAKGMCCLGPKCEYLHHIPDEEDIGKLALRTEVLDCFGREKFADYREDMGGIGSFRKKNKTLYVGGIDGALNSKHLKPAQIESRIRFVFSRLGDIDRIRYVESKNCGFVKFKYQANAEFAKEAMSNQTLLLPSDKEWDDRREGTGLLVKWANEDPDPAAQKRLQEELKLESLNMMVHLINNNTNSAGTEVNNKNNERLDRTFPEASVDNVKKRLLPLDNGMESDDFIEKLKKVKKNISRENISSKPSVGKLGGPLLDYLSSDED
# Variants of: B1
# Details: with cwc2_yeast CWC2, Q12046
row,Variant,effect of a mutation on the interaction
1,MLCAISGKVPRRPVLSPKSRTIFEKSLLEQYVKDTGNDPITNEPLSIEEIVEIVPSAQQASLTESTNSATLKANYSIPNLLTSLQNEWDAIMLENFKLRSTLDSLTKKLSTVMYERDAAKLVAAQLLMEKNEDSKDLPKSSQQAVAITREEFLQGLLQSSRDFVARGKLKAPKWPILKNLELLQAQNYSRNIKTFPYKELNKSMYYDKWVCMCRCEDGALHFTQLKDSKTITTITTPNPRTGGEHPAIISRGPCNRLLLLYPGNQITILDSKTNKVLREIEVDSANEIIYMYGHNEVNTEYFIWADNRGTIGFQSYEDDSQYIVHSAKSDVEYSSGVLHKDSLLLALYSPDGILDVYNLSSPDQASSRFPVDEEAKIKEVKFADNGAWMVVECDQTVVCFDLRKDVGTLAYPTYTIPEFKTGTVTYDIDDSGKNMIAYSNESNSLTIYKFDKKTKNWTKDEESALCLQSDTADFTDMDVVCGDGGIAAILKTNDSFNIVALTP [Y387A],decreasing interaction
2,MLCAISGKVPRRPVLSPKSRTIFEKSLLEQYVKDTGNDPITNEPLSIEEIVEIVPSAQQASLTESTNSATLKANYSIPNLLTSLQNEWDAIMLENFKLRSTLDSLTKKLSTVMYERDAAKLVAAQLLMEKNEDSKDLPKSSQQAVAITREEFLQGLLQSSRDFVARGKLKAPKWPILKNLELLQAQNYSRNIKTFPYKELNKSMYYDKWVCMCRCEDGALHFTQLKDSKTITTITTPNPRTGGEHPAIISRGPCNRLLLLYPGNQITILDSKTNKVLREIEVDSANEIIYMYGHNEVNTEYFIWADNRGTIGFQSYEDDSQYIVHSAKSDVEYSSGVLHKDSLLLALYSPDGILDVYNLSSPDQASSRFPVDEEAKIKEVKFADNGYWMVVECDQTVVCFDLRADVGTLAYPTYTIPEFKTGTVTYDIDDSGKNMIAYSNESNSLTIYKFDKKTKNWTKDEESALCLQSDTADFTDMDVVCGDGGIAAILKTNDSFNIVALTP [K404A],decreasing interaction
3,MLCAISGKVPRRPVLSPKSRTIFEKSLLEQYVKDTGNDPITNEPLSIEEIVEIVPSAQQASLTESTNSATLKANYSIPNLLTSLQNEWDAIMLENFKLRSTLDSLTKKLSTVMYERDAAKLVAAQLLMEKNEDSKDLPKSSQQAVAITREEFLQGLLQSSRDFVARGKLKAPKWPILKNLELLQAQNYSRNIKTFPYKELNKSMYYDKWVCMCRCEDGALHFTQLKDSKTITTITTPNPRTGGEHPAIISRGPCNRLLLLYPGNQITILDSKTNKVLREIEVDSANEIIYMYGHNEVNTEYFIWADNRGTIGFQSYEDDSQYIVHSAKSDVEYSSGVLHKDSLLLALYSPDGILDVYNLSSPDQASSRFPVDEEAKIKEVKFADNGYWMVVECDQTVVCFDLAKDVGTLAYPTYTIPEFKTGTVTYDIDDSGKNMIAYSNESNSLTIYKFDKKTKNWTKDEESALCLQSDTADFTDMDVVCGDGGIAAILKTNDSFNIVALTP [R403A],disrupting interaction
4,MLCAISGKVPRRPVLSPKSRTIFEKSLLEQYVKDTGNDPITNEPLSIEEIVEIVPSAQQASLTESTNSATLKANYSIPNLLTSLQNEWDAIMLENFKLRSTLDSLTKKLSTVMYERDAAKLVAAQLLMEKNEDSKDLPKSSQQAVAITREEFLQGLLQSSRDFVARGKLKAPKWPILKNLELLQAQNYSRNIKTFPYKELNKSMYYDKWVCMCRCEDGALHFTQLKDSKTITTITTPNPRTGGEHPAIISRGPCNRLLLLYPGNQITILDSKTNKVLREIEVDSANEIIYMYGHNEVNTEYFIWADNRGTIGFQSYEDDSQYIVHSAKSDVEYSSGVLHKDSLLLALYSPDGILDVYNLSSPDQASSRFPVDEEAKIKEVKFADNGYWMVVECDQTVVCFDLAADVGTLAYPTYTIPEFKTGTVTYDIDDSGKNMIAYSNESNSLTIYKFDKKTKNWTKDEESALCLQSDTADFTDMDVVCGDGGIAAILKTNDSFNIVALTP [R403A;K404A],disrupting interaction
5,MLCAISGKVPRRPVLSPKSRTIFEKSLLEQYVKDTGNDPITNEPLSIEEIVEIVPSAQQASLTESTNSATLKANYSIPNLLTSLQNEWDAIMLENFKLRSTLDSLTKKLSTVMYERDAAKLVAAQLLMEKNEDSKDLPKSSQQAVAITREEFLQGLLQSSRDFVARGKLKAPKWPILKNLELLQAQNYSRNIKTFPYKELNKSMYYDKWVCMCRCEDGALHFTQLKDSKTITTITTPNPRTGGEHPAIISRGPCNRLLLLYPGNQITILDSKTNKVLREIEVDSANEIIYMYGHNEVNTEYFIWADNRGTIGFQSYEDDSQYIVHSAKSDVEYSSGVLHKASLLLALYSPDGILDVYNLSSPDQASSRFPVDEEAKIKEVKFADNGYWMVVECDQTVVCFDLRKDVGTLAYPTYTIPEFKTGTVTYDIDDSGKNMIAYSNESNSLTIYKFDKKTKNWTKDEESALCLQSDTADFTDMDVVCGDGGIAAILKTNDSFNIVALTP [D341A],decreasing interaction
